Data taken from paper PMC11161652, “ASXLs binding to the PHD2/3 fingers of MLL4 provides a mechanism for the recruitment of BAP1 to active enhancers” (Nature Communications, 2024).
Read-outs that look alike come from different tables or passages of the source. Ends that are not written are not given here.

T1: MLL4PHD2/3 (Homo sapiens, UniProt O14686)
T1 construct: MLL4 (aa 227-324); GST (N, cleaved yes); made in house; host or cells: E. coli BL21-CodonPlus
T1 sequence (O14686 227-324): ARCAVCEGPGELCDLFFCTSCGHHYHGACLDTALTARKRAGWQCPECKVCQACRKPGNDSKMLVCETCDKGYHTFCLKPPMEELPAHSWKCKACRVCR

T2: MLL3PHD2/3 (Homo sapiens, UniProt Q8NEZ4)
T2 construct: human MLL3 (aa 342-439); GST (N, cleaved yes); made in house; host or cells: E. coli BL21-CodonPlus
T2 sequence (Q8NEZ4 342-439): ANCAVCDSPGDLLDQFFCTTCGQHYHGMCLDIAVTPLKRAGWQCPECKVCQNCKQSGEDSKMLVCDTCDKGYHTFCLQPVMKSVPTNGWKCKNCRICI

T3: PHD2 and PHD3 fingers of human MLL3 (aa 342-439) (human, UniProt Q8NEZ4 342-439)
T3 construct: PHD2 and PHD3 fingers of human MLL3 (KMT2C), aa 342-439; 15N-labelled for NMR titrations; also used unlabelled as the titrant against MLL3 PHD4; also called MLL3_(PHD2/3); MLL3 PHD2/3; source: E. coli BL21-CodonPlus, purified (glutathione agarose, PreScission cleavage; unlabeled proteins also SEC)
T3 sequence (looked up): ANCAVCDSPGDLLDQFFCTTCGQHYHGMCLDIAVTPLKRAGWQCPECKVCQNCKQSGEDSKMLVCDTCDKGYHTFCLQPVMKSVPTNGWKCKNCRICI

T4: PHD2 and PHD3 fingers of human MLL4 (aa 227-324) (human, UniProt O14686 227-324)
T4 construct: PHD2 and PHD3 fingers of human MLL4 (KMT2D), aa 227-324; also called MLL4_(PHD2/3); MLL4 PHD2/3; source: E. coli BL21-CodonPlus, purified (glutathione agarose, PreScission cleavage; unlabeled proteins also SEC)
T4 sequence (looked up): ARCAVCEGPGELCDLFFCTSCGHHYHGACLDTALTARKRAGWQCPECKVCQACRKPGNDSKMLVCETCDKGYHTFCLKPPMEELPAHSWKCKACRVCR

T5: PHD2 and PHD3 fingers of human MLL3 (aa 342-439) (human, UniProt Q8NEZ4 342-439)
T5 chain: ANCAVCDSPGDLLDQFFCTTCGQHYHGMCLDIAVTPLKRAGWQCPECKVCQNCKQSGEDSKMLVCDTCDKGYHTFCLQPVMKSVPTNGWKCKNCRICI


What was measured:
GST-MLL4PHD2/3 = experiment: GST pull-down, WT MLL4PHD2/3; assay type: binding, human; conditions: WT GST-MLL4PHD2/3; HEK293FT lysate, 3 h at 4 °C, western blot; n = 3
Method: (§1) Pull-down assays were performed by mixing resin-bound GST-MLL3PHD2/3 and GST-MLL4PHD2/3 (wild type and mutants) with lysates of HEK293FT expressing Myc-ASXL1, Myc-ASXL2 or Myc-ASXL2ΔMBH. Pellets of HEK293FT cells transfected with the appropriate pDEST expression construct (15 μg/dish using polyethylenimine (PEI)) were lysed with 10 times their volume of lysis buffer (50 mM Tris pH 7.3, 100 mM NaCl, 1 mM DTT, 1 mM EDTA, 1 mM PMSF, 0.1% Tween20, 1/100 anti-protease (Sigma)) and sonicated with a probe sonicator (Branson digital sonifier 450) calibrated at 40% amplitude for 3–4 rounds during 40–60 s. Lysates were then centrifuged in a Sorvall Lynx 6000 (rotor: F21-8x50Y) at 15,000 RPM during 20 min. Approximatively 9 μg of purified GST-fusion proteins bound to GSH resin (Sigma, G4510) were used for each condition. Final volume of GSH resin was adjusted to 30 μl per condition with empty GSH beads and incubated with 1.5 mL of HEK293FT lysate expressing Myc-ASXL1, Myc-ASXL2 or Myc-ASXL2ΔMBH for 3 h at 4 °C on a rotative system. A fraction of the reaction mixture (80 μL) was collected as the input. After the incubation, beads were washed 5 times and mixed with 100 μL of Laemmli buffer. Samples were loaded on 8% or 15% SDS-acrylamide gels and processed for western blotting.

GST-MLL3PHD2/3 = experiment: GST pull-down, WT MLL3PHD2/3; assay type: binding, human; conditions: WT GST-MLL3PHD2/3; HEK293FT lysate, 3 h at 4 °C, western blot; n = 3
Method: as §1

[1] = tested on: MLL4PHD2/3 or MLL3PHD2/3 mutants; experiment: GST pull-down, mutated MLL3/4PHD2/3; assay type: binding, human; conditions: mutated GST-MLL3/4PHD2/3; HEK293FT lysate, 3 h at 4 °C, western blot; n = 3
Method: as §1

MLL4PHD2/3 = target: T1, MLL4PHD2/3; experiment: NMR titration binding, WT MLL4PHD2/3; conditions: 0.1 mM protein; for binding in NMR titration (CSPs): 1H,15N HSQC, pH 6.8, 298 K, in words
Method: (§2) All constructs were expressed in BL21-CodonPlus competent cells.
(§3) For NMR titration experiments, ^1H,^15N HSQC spectra of 0.1 mM uniformly ^15N-labeled WT or mutated MLL4PHD2/3, MLL3PHD2/3 or MLL3PHD4 were recorded while WT or mutated ASXL2 (aa 650-670, 650-664, 656-670) and ASXL3 (aa 1047-1067) peptides (synthesized by SynPeptide) or MLL3PHD2/3 were added stepwise. All experiments were carried out in 20 mM Tris buffer (pH 6.8), 150 mM NaCl, and 3 mM DTT, containing 7% D2O. The dissociation constants (Kds) were determined by a nonlinear least-squares analysis in GraphPad Prism using the equation:1 △δ=△δmaxL+P+Kd−L+P+Kd^2−4PL/2P where [L] is concentration of the peptide, [P] is concentration of the protein, Δδ is the observed chemical shift change, and Δδmax is the normalized chemical shift change at saturation. Normalized chemical shift changes were calculated using the equation Δδ=△δH^2+△sn/5^2 (2), where Δδ is the change in chemical shift in parts per million (ppm).

MLL3PHD2/3 = target: T2, MLL3PHD2/3; experiment: NMR titration binding, WT MLL3PHD2/3; conditions: 0.1 mM protein
Method: as §2, §3

[2] = target: T3, PHD2 and PHD3 fingers of human MLL3 (aa …); experiment: other fluorescence titration; tryptophan fluorescence, 25 °C; 1.0 µM MLL4 PHD2/3 or MLL3 PHD2/3 with increasing peptide; excitation 295 nm; 20 mM Tris pH 7.2, 150 mM NaCl, 1 mM TCEP, 0.02% Tween20; average of three measurements; conditions: both partners purified
[3] = target: T4, PHD2 and PHD3 fingers of human MLL4 (aa …); experiment: as above; conditions: both partners purified
[4] = target: T4, PHD2 and PHD3 fingers of human MLL4 (aa …); experiment: not stated; fluorescence spectroscopy or NMR: the legends of Fig. 3c and Fig. 4b say that values marked (a) are from NMR and the others from fluorescence; the text does not tell which for these pairs; conditions: both partners purified
[5] = target: T5, PHD2 and PHD3 fingers of human MLL3 (aa …)
[6] = NMR, 1H,15N HSQC titration, 20 mM Tris pH 6.8, 150 mM NaCl, 298 K

| Molecule | binding in NMR titration (CSPs) (MLL4PHD2/3) | Kd [2] | Kd [3] | further results |
| --- | --- | --- | --- | --- |
| full-length ASXL1: full-length ASXL1 expressed in HEK293FT cells |  |  |  | association in pull-down (GST-MLL4PHD2/3): detected; association in pull-down (GST-MLL3PHD2/3): detected; association in pull-down [1]: not with the MLL4PHD2/3 or MLL3PHD2/3 mutants |
| RNTGARTLADIKARAQQARAQ [ASXL3 1047-1067] | large CSPs, confirming formation of the complex |  |  |  |
| ASXL2 K661E: K661E mutated ASXL2 peptide (residues 650-670) (NRTGARTLADIEAKAQLVKAQ) | abrogated binding |  |  | Kd (MLL4PHD2/3; [6]): no binding; binding in NMR titration (CSPs) (MLL3PHD2/3; 1H,15N HSQC, pH 6.8, 298 K, in words): did not form the complex; Kd (MLL3PHD2/3; [6]): no binding |
| ASXL1 peptide: ASXL1 peptide; the ASXL1 region encompassing residues 607-627 (GWTGARTLADIKARALQVRGA) | large CSPs, confirming formation of the complex |  |  |  |
| NRTGARTLADIKAKA (peptide, UniProt Q76L83 650-664, looked up, ASXL2, residues 650-664; also called ASXL2_(650-664); ASXL2 (aa 650-664); source: synthetic peptide (SynPeptide)) [ASXL2 peptide, residues 650-664] |  | 28 µM | 98 µM |  |
| RNTGARTLADIKARAQQARAQ (peptide, UniProt Q9C0F0 1047-1067, looked up, ASXL3, residues 1047-1067; also called ASXL3 (aa 1047-1067); source: synthetic peptide (SynPeptide)) [ASXL3 peptide (aa 1047-1067)] |  | 0.9 µM | 1.4 µM |  |
| NRTGARTLADEKAKAQLVKAQ (peptide, UniProt Q76L83 650-670, looked up, ASXL2, residues 650-670; also called I660E mutant of ASXL2; source: synthetic peptide (SynPeptide)) [ASXL2 peptide (aa 650-670) I660E] |  |  |  | Kd [4]: 1100 µM; binding result [2]: binds; Kd [5]: 84 µM |
| TLADIKAKAQLVKAQ (peptide, UniProt Q76L83 656-670, looked up, ASXL2, residues 656-670; also called ASXL2_(656-670); ASXL2 (aa 656-670); source: synthetic peptide (SynPeptide)) [ASXL2 peptide, residues 656-670] |  | 133 µM | 700 µM |  |
